Test results as given in patent publication US20050048590A1.

Molecular target: Fibronectin from human plasma (human) (UniProt P02751)
Assay: cell-based or functional assay

Chain of yeast enolase (Sigma) (P00924 2-437): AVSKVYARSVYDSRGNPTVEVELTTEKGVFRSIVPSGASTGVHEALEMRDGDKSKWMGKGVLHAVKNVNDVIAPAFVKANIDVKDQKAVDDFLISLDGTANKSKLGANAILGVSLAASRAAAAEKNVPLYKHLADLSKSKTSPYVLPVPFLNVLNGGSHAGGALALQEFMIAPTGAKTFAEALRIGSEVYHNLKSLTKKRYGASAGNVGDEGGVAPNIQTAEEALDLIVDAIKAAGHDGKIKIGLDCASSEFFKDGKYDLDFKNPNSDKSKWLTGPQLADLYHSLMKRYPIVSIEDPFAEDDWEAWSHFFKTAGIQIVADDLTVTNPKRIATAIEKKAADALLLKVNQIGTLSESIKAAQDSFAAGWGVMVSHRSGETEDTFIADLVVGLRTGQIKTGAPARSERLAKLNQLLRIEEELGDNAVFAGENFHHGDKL
Chain of Fibronectin from human plasma (human) (P02751 32-2477): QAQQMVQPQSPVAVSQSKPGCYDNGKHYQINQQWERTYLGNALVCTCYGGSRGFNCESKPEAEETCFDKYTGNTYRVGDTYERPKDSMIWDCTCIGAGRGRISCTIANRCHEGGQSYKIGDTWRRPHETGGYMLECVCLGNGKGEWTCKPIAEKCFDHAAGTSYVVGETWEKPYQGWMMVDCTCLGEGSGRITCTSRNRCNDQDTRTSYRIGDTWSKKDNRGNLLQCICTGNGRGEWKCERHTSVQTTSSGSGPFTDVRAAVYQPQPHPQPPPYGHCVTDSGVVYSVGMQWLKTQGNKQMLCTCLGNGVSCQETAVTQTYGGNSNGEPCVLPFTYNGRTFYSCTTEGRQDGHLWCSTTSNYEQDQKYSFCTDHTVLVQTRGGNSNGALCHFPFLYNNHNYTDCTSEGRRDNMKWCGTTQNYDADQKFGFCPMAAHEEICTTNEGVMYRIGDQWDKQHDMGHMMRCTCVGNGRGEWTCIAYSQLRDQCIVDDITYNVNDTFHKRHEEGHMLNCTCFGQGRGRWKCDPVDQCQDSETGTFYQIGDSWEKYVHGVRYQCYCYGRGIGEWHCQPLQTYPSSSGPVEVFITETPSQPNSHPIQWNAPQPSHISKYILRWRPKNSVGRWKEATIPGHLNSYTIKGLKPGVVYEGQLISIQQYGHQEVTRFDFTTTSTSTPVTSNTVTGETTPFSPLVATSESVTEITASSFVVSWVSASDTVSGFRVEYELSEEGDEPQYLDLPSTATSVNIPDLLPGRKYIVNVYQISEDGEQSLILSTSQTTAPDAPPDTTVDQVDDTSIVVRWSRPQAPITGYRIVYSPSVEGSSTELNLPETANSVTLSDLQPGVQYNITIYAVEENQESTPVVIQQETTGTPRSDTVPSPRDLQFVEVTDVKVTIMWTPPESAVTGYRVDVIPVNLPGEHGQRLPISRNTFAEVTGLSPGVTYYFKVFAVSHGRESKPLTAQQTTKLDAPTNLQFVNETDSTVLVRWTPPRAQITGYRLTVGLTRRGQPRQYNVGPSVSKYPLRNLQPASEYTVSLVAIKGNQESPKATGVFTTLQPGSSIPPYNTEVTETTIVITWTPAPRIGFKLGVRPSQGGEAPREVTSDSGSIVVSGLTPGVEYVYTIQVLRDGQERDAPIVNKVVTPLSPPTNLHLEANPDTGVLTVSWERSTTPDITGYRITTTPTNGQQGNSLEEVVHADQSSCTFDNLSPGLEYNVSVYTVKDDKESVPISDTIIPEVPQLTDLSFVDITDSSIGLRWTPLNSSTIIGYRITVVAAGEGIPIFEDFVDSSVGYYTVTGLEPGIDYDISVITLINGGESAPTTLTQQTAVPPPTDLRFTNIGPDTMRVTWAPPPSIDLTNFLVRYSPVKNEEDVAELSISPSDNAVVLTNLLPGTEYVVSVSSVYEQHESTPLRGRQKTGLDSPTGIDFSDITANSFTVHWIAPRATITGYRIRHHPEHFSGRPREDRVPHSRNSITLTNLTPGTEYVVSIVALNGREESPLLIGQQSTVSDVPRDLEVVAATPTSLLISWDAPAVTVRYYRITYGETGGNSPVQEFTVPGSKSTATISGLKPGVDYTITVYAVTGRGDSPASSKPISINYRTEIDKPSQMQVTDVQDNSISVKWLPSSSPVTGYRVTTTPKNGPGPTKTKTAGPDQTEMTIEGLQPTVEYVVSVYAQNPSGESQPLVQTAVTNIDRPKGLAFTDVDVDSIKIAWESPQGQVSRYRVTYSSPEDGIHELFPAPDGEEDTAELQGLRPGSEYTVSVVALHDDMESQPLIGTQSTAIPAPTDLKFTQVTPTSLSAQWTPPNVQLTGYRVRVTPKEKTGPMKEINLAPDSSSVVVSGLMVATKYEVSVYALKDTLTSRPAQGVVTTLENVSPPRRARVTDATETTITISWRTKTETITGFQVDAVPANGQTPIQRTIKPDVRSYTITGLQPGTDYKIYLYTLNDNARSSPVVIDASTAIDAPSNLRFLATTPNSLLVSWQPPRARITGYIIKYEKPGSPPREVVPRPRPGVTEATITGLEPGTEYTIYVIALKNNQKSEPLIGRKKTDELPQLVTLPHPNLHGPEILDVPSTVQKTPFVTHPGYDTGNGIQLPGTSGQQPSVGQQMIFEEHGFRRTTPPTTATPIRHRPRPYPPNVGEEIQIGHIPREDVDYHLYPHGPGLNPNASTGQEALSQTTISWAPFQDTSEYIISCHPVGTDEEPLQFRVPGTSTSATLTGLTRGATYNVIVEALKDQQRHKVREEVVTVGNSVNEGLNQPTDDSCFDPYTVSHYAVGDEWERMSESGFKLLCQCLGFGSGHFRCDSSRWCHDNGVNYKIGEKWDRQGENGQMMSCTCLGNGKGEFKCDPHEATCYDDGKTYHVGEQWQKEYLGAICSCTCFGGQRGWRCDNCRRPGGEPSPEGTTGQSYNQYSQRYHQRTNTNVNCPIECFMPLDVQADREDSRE

Substance: yeast enolase (Sigma) (from UniProt P00924 2-437)
- inhibition of pneumococcal adherence to fibronectin coated wells: 98%
